Series [1] addresses (His)6-tagged PpOdhB, β-subunit of opine dehydrogenase from Pseudomonas putida KT2440 (Pseudomonas putida KT2440) (UniProt Q88EK5). The series is described as follows: pull-down; PpOdhB-C-A operon with N-terminal (His)6-tag on OdhB expressed in P. putida cells; Ni-NTA chromatography in buffer with Tween-20, 300 mM NaCl, pH 8.0; bands on SDS-PAGE identified by N-terminal sequencing; molar ratio by image scanning of SDS-PAGE peak areas (ImageJ).

Series [2] addresses T1, PpOdhB (beta-subunit of PpOpnDH, PpOdhABC) (Pseudomonas putida, UniProt Q88EK5+Q88EK6).
T1 construct: gene ooxB; N-terminal (His)6-tagged PpOdhB in the PpOdhABC complex (α4β4γ4); with PpOdhA (PP_4456) and PpOdhC
T1 sequence (Q88EK5 1-375): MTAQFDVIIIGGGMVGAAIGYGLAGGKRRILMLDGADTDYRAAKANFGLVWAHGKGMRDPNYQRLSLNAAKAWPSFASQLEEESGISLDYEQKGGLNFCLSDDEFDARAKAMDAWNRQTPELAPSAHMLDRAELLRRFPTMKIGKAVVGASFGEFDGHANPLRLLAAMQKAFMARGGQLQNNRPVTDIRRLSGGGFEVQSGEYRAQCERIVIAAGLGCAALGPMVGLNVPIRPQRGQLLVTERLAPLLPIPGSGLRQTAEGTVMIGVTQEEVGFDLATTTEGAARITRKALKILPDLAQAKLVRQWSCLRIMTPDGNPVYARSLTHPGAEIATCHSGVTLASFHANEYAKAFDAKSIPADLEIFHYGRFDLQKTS
T1 sequence (Q88EK6 2-464): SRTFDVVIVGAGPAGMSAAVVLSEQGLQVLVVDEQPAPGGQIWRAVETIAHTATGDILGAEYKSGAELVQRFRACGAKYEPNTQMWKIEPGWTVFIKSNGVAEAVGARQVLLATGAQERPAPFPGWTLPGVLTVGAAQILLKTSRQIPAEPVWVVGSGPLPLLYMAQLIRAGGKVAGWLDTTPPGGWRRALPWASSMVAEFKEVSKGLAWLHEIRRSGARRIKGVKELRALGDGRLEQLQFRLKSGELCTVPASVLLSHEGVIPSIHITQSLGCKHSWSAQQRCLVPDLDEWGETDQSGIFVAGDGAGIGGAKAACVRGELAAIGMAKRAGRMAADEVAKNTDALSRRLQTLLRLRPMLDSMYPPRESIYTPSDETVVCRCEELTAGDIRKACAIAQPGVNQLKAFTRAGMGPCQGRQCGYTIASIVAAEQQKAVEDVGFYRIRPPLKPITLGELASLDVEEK
The series is described as follows: inhibition of nopaline ([…]) dehydrogenase activity of the purified enzyme. It is filed as biochemical.

Substrate in series [3]: N=C(N)NCCC[C@H](N[C@H](CCC(=O)O)C(=O)O)C(=O)O
The series is described as follows: purified protein. The conditions noted are these: FAD, FMN, [2Fe-2S] the β- and α-subunit were both necessary for substrate binding.

In series [4] the target is T2, (His)6-tagged PpOdhB, β-subunit of opine dehydrogenase from Pseudomonas putida KT2440 (Pseudomonas putida KT2440, UniProt Q88EK5 1-375).
T2 construct: PpOdhB, product of gene PP_4457 of Pseudomonas putida KT2440; first gene of the operon PpOdhB-C-A; band of 42 kDa; Carries FAD; also called PP_4457; source: P. putida KT2442-oxyR1 harboring pUCP/PpOdhABC, co-expressed from the PpOdhB-C-A operon, purified (Ni-NTA); not shown: His6, N-terminal, kept
T2 sequence (looked up): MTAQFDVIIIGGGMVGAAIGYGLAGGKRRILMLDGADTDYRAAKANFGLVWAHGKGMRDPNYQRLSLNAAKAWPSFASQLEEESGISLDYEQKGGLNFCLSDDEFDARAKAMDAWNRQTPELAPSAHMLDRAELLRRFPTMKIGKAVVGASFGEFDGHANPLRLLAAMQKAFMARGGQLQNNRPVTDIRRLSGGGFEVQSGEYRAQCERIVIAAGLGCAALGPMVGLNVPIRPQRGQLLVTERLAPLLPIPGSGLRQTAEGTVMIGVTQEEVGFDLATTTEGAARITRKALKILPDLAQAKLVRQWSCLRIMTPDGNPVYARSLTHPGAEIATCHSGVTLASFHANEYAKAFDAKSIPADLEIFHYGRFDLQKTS
The series is described as follows: pull-down; PpOdhB-C-A operon with N-terminal (His)6-tag on OdhB expressed in P. putida cells; Ni-NTA chromatography in buffer with Tween-20, 300 mM NaCl, pH 8.0; bands on SDS-PAGE identified by N-terminal sequencing; molar ratio by image scanning of SDS-PAGE peak areas (ImageJ). The settings on record: partners not purified.

Substrate in series [5]: C[C@@H](N[C@@H](CCCNC(=N)N)C(=O)O)C(=O)O
The series is described as follows: purified protein. The settings on record: FAD, FMN.

In general, stoichiometry N refers to the number of molecules, sites or subunits per partner or assembly. “PpOdhC, γ-subunit of opine dehydrogenase from Pseudomonas putida KT2440 (enzyme)”: in series [1], the stoichiometry N is 1.
What is called IC50 is the concentration at which inhibition is half-maximal. Low values mean greater potency in that assay, high ones weaker potency in that assay. In the case of `O=C(O)CCC(=O)C(=O)O` [α-ketoglutarate], the midpoint of inhibition in series [2], the IC50, lay at 589 µM.

B1: PpOdhB (beta-subunit of PpOpnDH, PpOdhABC) (Pseudomonas putida KT2440) (protein)
chain 1: MTAQFDVIIIGGGMVGAAIGYGLAGGKRRILMLDGADTDYRAAKANFGLVWAHGKGMRDPNYQRLSLNAAKAWPSFASQLEEESGISLDYEQKGGLNFCLSDDEFDARAKAMDAWNRQTPELAPSAHMLDRAELLRRFPTMKIGKAVVGASFGEFDGHANPLRLLAAMQKAFMARGGQLQNNRPVTDIRRLSGGGFEVQSGEYRAQCERIVIAAGLGCAALGPMVGLNVPIRPQRGQLLVTERLAPLLPIPGSGLRQTAEGTVMIGVTQEEVGFDLATTTEGAARITRKALKILPDLAQAKLVRQWSCLRIMTPDGNPVYARSLTHPGAEIATCHSGVTLASFHANEYAKAFDAKSIPADLEIFHYGRFDLQKTS
chain 2: SRTFDVVIVGAGPAGMSAAVVLSEQGLQVLVVDEQPAPGGQIWRAVETIAHTATGDILGAEYKSGAELVQRFRACGAKYEPNTQMWKIEPGWTVFIKSNGVAEAVGARQVLLATGAQERPAPFPGWTLPGVLTVGAAQILLKTSRQIPAEPVWVVGSGPLPLLYMAQLIRAGGKVAGWLDTTPPGGWRRALPWASSMVAEFKEVSKGLAWLHEIRRSGARRIKGVKELRALGDGRLEQLQFRLKSGELCTVPASVLLSHEGVIPSIHITQSLGCKHSWSAQQRCLVPDLDEWGETDQSGIFVAGDGAGIGGAKAACVRGELAAIGMAKRAGRMAADEVAKNTDALSRRLQTLLRLRPMLDSMYPPRESIYTPSDETVVCRCEELTAGDIRKACAIAQPGVNQLKAFTRAGMGPCQGRQCGYTIASIVAAEQQKAVEDVGFYRIRPPLKPITLGELASLDVEEK
As a reminder, the Km is the substrate concentration at which the rate is half of its maximum. For orientation: kcat means the number of substrate molecules converted per active site and unit of time at saturation. The kcat/Km is the turnover number divided by the Michaelis constant. Take B1: in the series “purified protein [3]”, the Michaelis constant (Km) amounted to 0.476 mM, the kcat amounted to 315 s⁻¹ and the catalytic efficiency (kcat/Km) is 663000 M⁻¹ s⁻¹.

B2: PpOdhA, α-subunit of opine dehydrogenase from Pseudomonas putida KT2440 (enzyme, UniProt Q88EK6 1-464, looked up)
chain: MSRTFDVVIVGAGPAGMSAAVVLSEQGLQVLVVDEQPAPGGQIWRAVETIAHTATGDILGAEYKSGAELVQRFRACGAKYEPNTQMWKIEPGWTVFIKSNGVAEAVGARQVLLATGAQERPAPFPGWTLPGVLTVGAAQILLKTSRQIPAEPVWVVGSGPLPLLYMAQLIRAGGKVAGWLDTTPPGGWRRALPWASSMVAEFKEVSKGLAWLHEIRRSGARRIKGVKELRALGDGRLEQLQFRLKSGELCTVPASVLLSHEGVIPSIHITQSLGCKHSWSAQQRCLVPDLDEWGETDQSGIFVAGDGAGIGGAKAACVRGELAAIGMAKRAGRMAADEVAKNTDALSRRLQTLLRLRPMLDSMYPPRESIYTPSDETVVCRCEELTAGDIRKACAIAQPGVNQLKAFTRAGMGPCQGRQCGYTIASIVAAEQQKAVEDVGFYRIRPPLKPITLGELASLDVEEK
notes: PpOdhA, product of gene PP_4456 of Pseudomonas putida KT2440; GTG used as start codon; band of 46 kDa (45 kDa in the methods); The start (GTG codon) may differ from the annotated entry; also called PP_4456
In the case of B2, the “stoichiometry N” value in series [4] is about 1.

B3: BjOdhB2 (beta-subunit of BjOpnDH2, BjOdhAB2C) (Bradyrhizobium diazoefficiens USDA 110) (protein)
chain 1: MTGNVDAIVIGGGIHGCSTTLHLCLAGLKPVLIEKDYAGRHASGVNAGGVRQLARHVPEIPLSIRSMGIWERITDLLDDDCSFESHGQVLVAENEDELAVCRARVAELNALGFTHEELIDATELRRLVPAVAETCPGGVVSRRDGAANPAQTTTAFRRKAEQLGATVREGVAASNIRYSDGLWYVDVGSDTYAAPVLVNAAGAWAGKIAAALGEPVPVETVAPMLMITSRVPHFIDPVVILRGRKLSFKQFSNGTVLIGGGHLATPYQDRNETVLDWKSLAISARTVFELFPVMRSATIVRAWAGIEAKMKDDIPVFGPSSRHKGLYHQFGFSLHGFQLGPGAGAVMAELIVNGGTQTRIGDLGIDRFHPSTL
chain 2: MTVAPKREDYDVVVIGAGPAGLAAAATSAEAGLSTLLLDENIGPGGQVFRAISSTPVTDRNQLGADYWVGADLVQSLRASNAEVIQRAMVWSLDRNLDIAVSVGGASAFVKAKRVILATGALERPFPIPGWTLPGVMTAGAAQTMLKSSALVPDGRTVIAGQGPLLWLLAAQILRLGGRIDRILDTTERGNYFAALPHAFAFLTSPYFAKGLSMMREVKAKVQVVTGVTELTASGDGQLANVSYVAGGKRETLPVDLLLLHQGVVPNVNLAMAAGVEHRWDELQLCWSPVLDANGSSSVAGIAIAGDGAGIGGANAAVVRGRIAARAAVEALAPAAAAKLASMATLRADLAKAERGRAFLDTLFRPAPQFRIPSGDTIVCRCEEVTAKDVLDSVAIGATGPNQLKAYRRTGMGPCQGRLCGLTVTELMAQARGKSPQEIGYYRLRAPVKPITLAELAAVPKTEDDVKAVVRG
With B3, in “purified protein [5]”, the Km came to 19.5 mM, the kcat was determined as 72.8 s⁻¹ and the catalytic efficiency (kcat/Km) worked out at 3730 M⁻¹ s⁻¹.

B4: BjOdhB1 (beta-subunit of BjOpnDH1, BjOdhAB1C) (Bradyrhizobium diazoefficiens USDA 110) (protein)
chain 1: MSGEYDVAVVGGGLLGSAIAWGLGRLGKKVAVLDEGDITKRASRANFALVWVQSKGLGMPAYTVWTVQASQAWGRLAFELKQQTGLDVSLQQNGGFHLTLGEDEFGQRTELVKRMHNQVGAADYKMEMLPASEVKKALPLIGPEVSGGSYCPLDGHVNSLRTFRAFHTGFMAFGIDYLPERPVSAISKSGGEFRLTTPKGELRAAKVVLAAGNANQTLAPMVGLHAPMGPTRGQIVVTERTMPFLPHPLTTIRQTDEGTVMIGDSKEDELDDRTLKHSISAVMTDRAQRMFPHLSRLNVIRSWAGIRVMPQDGFPIYDQSETHPGAFVACCHSGVTLASNHAFEIARMVAQGALEPELVGAFSASRFGGAGAANNSGY
chain 2: MTVAPKREDYDVVVIGAGPAGLAAAATSAEAGLSTLLLDENIGPGGQVFRAISSTPVTDRNQLGADYWVGADLVQSLRASNAEVIQRAMVWSLDRNLDIAVSVGGASAFVKAKRVILATGALERPFPIPGWTLPGVMTAGAAQTMLKSSALVPDGRTVIAGQGPLLWLLAAQILRLGGRIDRILDTTERGNYFAALPHAFAFLTSPYFAKGLSMMREVKAKVQVVTGVTELTASGDGQLANVSYVAGGKRETLPVDLLLLHQGVVPNVNLAMAAGVEHRWDELQLCWSPVLDANGSSSVAGIAIAGDGAGIGGANAAVVRGRIAARAAVEALAPAAAAKLASMATLRADLAKAERGRAFLDTLFRPAPQFRIPSGDTIVCRCEEVTAKDVLDSVAIGATGPNQLKAYRRTGMGPCQGRLCGLTVTELMAQARGKSPQEIGYYRLRAPVKPITLAELAAVPKTEDDVKAVVRG
For B4, in the series “purified protein [5]”, the Km is 4.81 mM, the kcat is 0.0982 s⁻¹ and the kcat/Km was 20.3 M⁻¹ s⁻¹.

These data come from paper PMC4575208, “Characterization of Flavin-Containing Opine Dehydrogenase from Bacteria” (PLoS ONE, 2015).
